According to patent US20200262868A1 (DIGNIFY THERAPEUTICS, published 2020):
Where no end group is shown, it is not given here. [ ]: non-standard residue; d: D form. NMeL = CN[C@@H](CC(C)C)C(=O)O; Nle = CCCC[C@H](N)C(=O)O

T1: human NK2 Receptor (human, UniProt P21452 1-398)
T1 sequence (looked up): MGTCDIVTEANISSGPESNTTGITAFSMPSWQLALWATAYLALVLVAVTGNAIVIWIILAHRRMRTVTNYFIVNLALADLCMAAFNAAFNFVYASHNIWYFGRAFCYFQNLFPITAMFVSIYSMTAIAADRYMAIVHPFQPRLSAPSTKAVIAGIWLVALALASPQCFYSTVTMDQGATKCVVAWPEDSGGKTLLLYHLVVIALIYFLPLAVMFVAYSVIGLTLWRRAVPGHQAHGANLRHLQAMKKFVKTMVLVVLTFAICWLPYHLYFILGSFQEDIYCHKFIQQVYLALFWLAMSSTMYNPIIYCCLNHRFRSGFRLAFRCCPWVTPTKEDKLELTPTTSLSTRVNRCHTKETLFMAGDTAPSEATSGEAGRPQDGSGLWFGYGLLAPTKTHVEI

B1: Heptapeptide analog J, Asp-Arg-Phe-Val-Gly-Leu-Nle-NH2 (peptide)
peptide: DRFVGLX
HELM: PEPTIDE1{D.R.F.V.G.L.[Nle].[am]}$$$$V2.0; N-terminus assumed
SMILES: CCCC[C@H](NC(=O)[C@H](CC(C)C)NC(=O)CNC(=O)[C@@H](NC(=O)[C@H](Cc1ccccc1)NC(=O)[C@H](CCCNC(=N)N)NC(=O)[C@@H](N)CC(=O)O)C(C)C)C(N)=O
notes: synthetic heptapeptide analog of neurokinin A, Fmoc solid-phase synthesis; also called Compound J; Cmpd J
B2: Heptapeptide analog B, Asp-Arg-Phe-Val-Gly-(NMe-Leu)-Nle-NH2 (peptide)
peptide: DRFVG[NMeL][Nle]-NH2
notes: synthetic heptapeptide analog of neurokinin A, Fmoc solid-phase synthesis; also called Compound B; Cmpd B
B3: Heptapeptide analog G, Asp-Lys-Phe-Val-(β-Ala)-Leu-Nle-NH2 (peptide)
peptide: DKFVALX
HELM: PEPTIDE1{D.K.F.V.[bAla].L.[Nle].[am]}$$$$V2.0; N-terminus assumed
SMILES: CCCC[C@H](NC(=O)[C@H](CC(C)C)NC(=O)CCNC(=O)[C@@H](NC(=O)[C@H](Cc1ccccc1)NC(=O)[C@H](CCCCN)NC(=O)[C@@H](N)CC(=O)O)C(C)C)C(N)=O
notes: synthetic heptapeptide analog of neurokinin A, Fmoc solid-phase synthesis; also called Compound G; Cmpd G
B4: Heptapeptide analog K, Asp-Arg-Phe-Val-(β-Ala)-Leu-Nle-NH2 (peptide)
peptide: DRFVALX
HELM: PEPTIDE1{D.R.F.V.[bAla].L.[Nle].[am]}$$$$V2.0; N-terminus assumed
SMILES: CCCC[C@H](NC(=O)[C@H](CC(C)C)NC(=O)CCNC(=O)[C@@H](NC(=O)[C@H](Cc1ccccc1)NC(=O)[C@H](CCCNC(=N)N)NC(=O)[C@@H](N)CC(=O)O)C(C)C)C(N)=O
notes: synthetic heptapeptide analog of neurokinin A, Fmoc solid-phase synthesis; also called Compound K; Cmpd K
B5: Heptapeptide analog A, Asp-Lys-Phe-Val-Gly-(NMe-Leu)-Met-NH2 (peptide)
peptide: DKFVG[NMeL]M-NH2
notes: synthetic heptapeptide analog of neurokinin A, Fmoc solid-phase synthesis; also called Compound A; Cmpd A
B6: Heptapeptide analog E, Asp-Lys-Phe-Val-(β-Ala)-Leu-Met-NH2 (peptide)
peptide: DKFVALM
HELM: PEPTIDE1{D.K.F.V.[bAla].L.M.[am]}$$$$V2.0; N-terminus assumed
SMILES: CSCC[C@H](NC(=O)[C@H](CC(C)C)NC(=O)CCNC(=O)[C@@H](NC(=O)[C@H](Cc1ccccc1)NC(=O)[C@H](CCCCN)NC(=O)[C@@H](N)CC(=O)O)C(C)C)C(N)=O
notes: synthetic heptapeptide analog of neurokinin A, Fmoc solid-phase synthesis; also called Compound E; Cmpd E
B7: Heptapeptide analog C, Asp-Arg-Phe-Val-Gly-(NMe-Leu)-Met-NH2 (peptide)
peptide: DRFVGLM
HELM: PEPTIDE1{D.R.F.V.G.[meL].M.[am]}$$$$V2.0; N-terminus assumed
SMILES: CSCC[C@H](NC(=O)[C@H](CC(C)C)N(C)C(=O)CNC(=O)[C@@H](NC(=O)[C@H](Cc1ccccc1)NC(=O)[C@H](CCCNC(=N)N)NC(=O)[C@@H](N)CC(=O)O)C(C)C)C(N)=O
notes: synthetic heptapeptide analog of neurokinin A, Fmoc solid-phase synthesis; also called Compound C; Cmpd C
B8: Heptapeptide analog H, Asp-Arg-Phe-Val-Gly-Leu-Met-NH2 (peptide)
peptide: DRFVGLM-NH2
notes: synthetic heptapeptide analog of neurokinin A, Fmoc solid-phase synthesis; also called Compound H; Cmpd H
B9: Heptapeptide analog I, Asp-Arg-Phe-Val-(β-Ala)-Leu-Met-NH2 (peptide)
peptide: DRFVALM
HELM: PEPTIDE1{D.R.F.V.[bAla].L.M.[am]}$$$$V2.0; N-terminus assumed
SMILES: CSCC[C@H](NC(=O)[C@H](CC(C)C)NC(=O)CCNC(=O)[C@@H](NC(=O)[C@H](Cc1ccccc1)NC(=O)[C@H](CCCNC(=N)N)NC(=O)[C@@H](N)CC(=O)O)C(C)C)C(N)=O
notes: synthetic heptapeptide analog of neurokinin A, Fmoc solid-phase synthesis; also called Compound I; Cmpd I
B10: Heptapeptide analog D, Asp-Lys-Phe-Val-Gly-Leu-Met-NH2 (peptide)
peptide: DKFVGLM-NH2

The binders below were run against T2, human NK1 Receptor (human, UniProt P25103 1-407) (assay: cell-based or functional assay).
T2 sequence (P25103 whole entry): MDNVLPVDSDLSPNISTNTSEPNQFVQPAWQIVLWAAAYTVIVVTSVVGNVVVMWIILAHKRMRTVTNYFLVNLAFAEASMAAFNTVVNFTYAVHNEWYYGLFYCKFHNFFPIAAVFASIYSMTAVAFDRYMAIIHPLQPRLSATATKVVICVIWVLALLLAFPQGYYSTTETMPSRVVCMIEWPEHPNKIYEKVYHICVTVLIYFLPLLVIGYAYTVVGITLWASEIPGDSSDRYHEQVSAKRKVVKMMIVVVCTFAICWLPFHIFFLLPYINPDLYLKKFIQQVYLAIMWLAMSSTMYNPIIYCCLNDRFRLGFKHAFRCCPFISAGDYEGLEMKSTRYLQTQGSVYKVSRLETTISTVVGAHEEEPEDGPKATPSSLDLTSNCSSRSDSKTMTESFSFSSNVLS

Binder	maximal calcium response compared to Substance P [%]
B1	> 90
B2	> 90
B3	> 90
B4	> 90
B5	> 90
B6	> 90
B7	> 90
B8	> 90
B9	> 90
B10	> 90

What follows are binders tested against T1, human NK2 Receptor (assay: cell-based or functional assay).

Binder	maximal calcium response compared to Neurokinin A [%]
B1	> 80
B2	> 80
B3	> 80
B4	> 80
B5	> 80
B6	> 80
B7	> 80
B8	> 80
B9	> 80
B10	> 80

Target: T2, human NK1 Receptor
Experiment: cell-based or functional assay
Remark: another data set of the same source

Binder	hNK1 EC50 (intracellular calcium mobilization, FLIPR, CHO-hNK1 cells) [nM]
B1	1.71
B2	5.84
B3	78.2
B4	29.5
B5	0.95
B6	6.31
B7	0.3
B8	0.16
B9	1.83

Target: T1, human NK2 Receptor
Experiment: cell-based or functional assay
Remark: another data set of the same source

Binder	hNK2 EC50 (intracellular calcium mobilization, FLIPR, CHO-hNK2 cells) [nM]	hNK2 selectivity ratio (EC50 hNK1R/hNK2R) [ratio]
B1	0.2	9
B2	0.08	70
B3	3	26
B4	1.16	25
B5	0.14	–
B6	0.18	36
B7	0.16	2
B8	0.19	0.8
B9	0.15	12

Each binder was assayed against T1, human NK2 Receptor (assay: ratio of Ki hNK1R/hNK2R from the radioligand competition assays).
Procedure: (§1) Filtration Assays: Stock solutions of compounds (10 mM) were prepared in DMSO and stored at −20° C. until use. Further dilutions were performed in DMSO to provide an 11-point concentration response curve (CRC) spanning final concentrations from 0.01 nM to 10 μM. Radioligand binding experiments were performed immediately after transferring 2 μL of each concentration of test compound to a 96-well plate. […] After drying for 1 h at 40° C., 50 μL of Microscint-20 was added to each filter plate and bound radioactivity was measured using a Microplate TopCount (Packard C9912). […] Filters were washed 4 times with 1 mL ice cold 0.9% NaCl and placed into pico vials with 4 mL of Filter Count.

Binder	hNK2 selectivity ratio [ratio]
B1	72.5
B2	558
B3	189
B4	176
B6	122
B7	167
B8	27.1
B9	108

What follows are binders tested against T1, human NK2 Receptor (assay: radioligand competition, displacement of 0.1 nM [125I]-NKA from CHO-hNK2 membranes).
Procedure: as §1

Binder	Ki [nM]
B1	1.74
B2	0.59
B3	16.4
B4	6.85
B5	0.2
B6	2.11
B7	0.12
B8	0.31
B9	0.88

Each binder was assayed against T2, human NK1 Receptor (assay: radioligand competition, displacement of 5.0 nM [3H]-septide from CHO-hNK1 membranes).
Procedure: as §1

Binder	Ki [nM]
B1	126
B2	331
B3	3090
B4	1200
B5	50.1
B6	257
B7	20.9
B8	8.32
B9	95.5
